Patent US10739331B2, “OMA1 activity assay” (BioVentures, LLC, priority 2017, dated 2020)
Entries after “also recorded” stand apart in the source; their conditions may differ. Blank lines part the entries; values can stand above or below the compound they belong to. Non-standard residues stand in square brackets, D forms with d. Residues, ends and D or L forms follow the SMILES beside them. No end group written: not given here. *: point of attachment. Sta = CC(C)C[C@H](N)[C@@H](O)CC(=O)O; Mca = COc1ccc2c(CC(=O)*)cc(=O)oc2c1; DNP = 2,4-Dinitrophenyl, quencher; Isovaleryl = CC(C)CC(=O)*

Key:
[1] = molecular target: T1, OMA1 (Homo sapiens, UniProt Q96E52); conditions: prior studies (refs 12, 24); cited from earlier work
T1 sequence (Q96E52 144-524): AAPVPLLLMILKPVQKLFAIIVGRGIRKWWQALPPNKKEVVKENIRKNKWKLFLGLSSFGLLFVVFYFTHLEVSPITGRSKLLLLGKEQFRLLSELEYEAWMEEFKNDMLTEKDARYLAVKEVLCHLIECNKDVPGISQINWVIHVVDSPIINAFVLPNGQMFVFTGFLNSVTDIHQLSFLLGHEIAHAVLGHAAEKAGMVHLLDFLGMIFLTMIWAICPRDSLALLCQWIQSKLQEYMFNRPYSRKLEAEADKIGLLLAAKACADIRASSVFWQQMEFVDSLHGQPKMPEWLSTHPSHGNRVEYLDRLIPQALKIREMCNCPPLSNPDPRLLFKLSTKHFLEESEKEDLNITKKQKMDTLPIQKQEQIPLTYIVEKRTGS

[2] = molecular target: T2, OMA1 (Rattus norvegicus, UniProt D3ZS74); assay: OMA1 activity assay in rat renal mitochondrial lysates after cold storage / transplantation; type: biochemical; conditions: cold storage alone or followed by transplant
T2 construct: Renal cell lysates from normal rat kidney (NRK) epithelial cell line were prepared; endogenous in cells; host or cells: NRK-52E (ATCC CRL-1571), RIPA lysate, 5 µg protein per well
T2 sequence (D3ZS74 123-504): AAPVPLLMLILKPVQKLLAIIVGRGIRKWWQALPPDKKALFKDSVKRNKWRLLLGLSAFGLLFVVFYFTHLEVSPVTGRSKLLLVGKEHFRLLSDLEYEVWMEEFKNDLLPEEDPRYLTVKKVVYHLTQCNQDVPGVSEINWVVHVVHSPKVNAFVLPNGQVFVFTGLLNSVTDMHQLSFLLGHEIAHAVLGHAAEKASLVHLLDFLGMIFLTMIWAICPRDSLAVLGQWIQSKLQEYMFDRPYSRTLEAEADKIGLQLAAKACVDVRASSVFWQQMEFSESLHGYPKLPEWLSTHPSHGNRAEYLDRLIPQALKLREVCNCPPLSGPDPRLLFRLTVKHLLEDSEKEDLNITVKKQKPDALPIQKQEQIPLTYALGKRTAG
Source text: Long-term renal function is compromised in patients receiving deceased donor kidneys which require cold storage exposure prior to transplantation. It is established that extended cold storage plus transplantation of kidneys induces renal mitochondrial dysfunction. To assay OMA1 activity under stress conditions known to induce mitochondrial dysfunction an exemplary reporter molecule of the invention was employed in mitochondrial lysates from control kidneys (CTRL), sham surgery (SH), cold storage alone (CS), or cold storage and transplantation (CS/TX) conditions.
Our OMA1 activity assay utilizes an 8-mer peptide derived from the cleavage sequence of OPA1, which is reported to be specific of OMA1 which is referred as the OPA1 FRET substrate. The peptide contains a fluorogenic MCA moiety on the N-terminus and a DNP quencher moiety on the C-terminus (FIG. 1), which was custom-synthesized by LifeTein LLC and handled accordingly to the manufacturer's instructions. […] Fluorescence was recorded (excitation/emission of 320/405 nm) once per minute for 30 min at 37° C. using a fluorescent plate reader (SpectraMax M2e, Molecular Devices equipped with SoftMax Pro v5 software).

[3] = molecular target: T2, OMA1; assay: OMA1 activity assay (OPA1 FRET substrate) in NRK cell lysates; type: biochemical; conditions: for decrease of OMA1 activity compared to the standard substrate sequence: modified 8-mer FRET substrate vs AFRATDHG
Protocol: Normal rat kidney cells (NRK-52E; ATCC No. CRL-1571) were maintained in a humidified incubator with 5% CO2, 95% air at 37° C. in DMEM containing 5% fetal bovine serum. Renal cell lysates from normal rat kidney (NRK) epithelial cell line were prepared by using radioimmunoprecipitation assay (RIPA) buffer (Pierce) with 1 mM PMSF (Sigma), 1.2 mM Na3VO4 (Sigma), 2.5 mM NaF (Sigma), 1 mM DTT (Sigma), 1× of Halt Protease & Phosphatase inhibitor cocktail (Thermo Scientific), and 5 mM EDTA (Thermo Scientific). Protein concentrations were determined by Coomassie Plus Protein Assay Reagent (Pierce).
Our OMA1 activity assay utilizes an 8-mer peptide derived from the cleavage sequence of OPA1, which is reported to be specific of OMA1 which is referred as the OPA1 FRET substrate. The peptide contains a fluorogenic MCA moiety on the N-terminus and a DNP quencher moiety on the C-terminus (FIG. 1), which was custom-synthesized by LifeTein LLC and handled accordingly to the manufacturer's instructions. Using a final 100 μl reaction volume and black, opaque 96 well plates (Costar), the reagents were added in the following order: 1) OMA1 activity assay buffer (50 mM of Tris/HCl, pH=7.5, 40 mM of KCl), 2) 5 μg of protein sample, 3)+/−200 μM of the zinc chelator N,N,N′,N′-Tetrakis (2-pyridylmethyl)ethylenediamine (TPEN) resuspended in 100% ethanol and lastly, 4) the OPA1 FRET substrate (5 μM final concentration; dissolved in DMSO). Fluorescence was recorded (excitation/emission of 320/405 nm) once per minute for 30 min at 37° C. using a fluorescent plate reader (SpectraMax M2e, Molecular Devices equipped with SoftMax Pro v5 software).
For the statistical analysis, the average fluorescence of the OPA1 FRET substrate alone was measured (<150 relative FLS units) and that value was subtracted from the sample values. The values were reported as a difference of TPEN inhibition [(sample X)−(sample X+TPEN)] where the slopes between 0-30 min were calculated (by linear regression) and each treatment were compared to appropriate controls. Thus, OMA1 activity was calculated by […] to enhance specificity.

[4] = molecular target: T2, OMA1; assay: as above; type: biochemical; conditions: untreated NRK cell lysates (5 μg), substrate 1-30 μM, Michaelis-Menten
[5] = system: OMA1; assay: Live-cell OMA1 activity assay with mitochondrial targeted FRET peptide; type: cell-based, rat; conditions: NRK-52E cells, FRET peptide 10 μM, 4 hr, antimycin A 50 nM, 30 min, preliminary
Source text: Live-Cell OMA1 activity assay: To deliver the FRET OMA1 peptide to mitochondria in living cells, we utilized a modified short Szeto-Schiller (SS) peptide sequence1 attached to the amino terminus of the 8 amino acid FRET sequence (custom synthesized by LifeTein) (FIG. 5A). […] Small molecule/peptide library subsets or novel peptides will be screened for inhibitory activity using this live-cell OMA1 assay.
Live-cell OMA1 activity assay preliminary results: To deliver the FRET peptide to mitochondria in living cells, we have used a modified short Szeto-Schiller (SS) mitochondrial targeting peptide sequence1 (d-arginine, dimethyl tyrosine, ornithine, tryptophan) attached to the amino terminus of the eight amino acid FRET sequence (FIG. 5A). Normal rat kidney (NRK-52E; ATCC No. CRL-1571) cells were plated on black 96-well cell culture plates (10,000 cells/well). The next day, the cell permeable peptide was added to cells (10 μM; 4 hr; 37° C.) followed by exposure to ATP depletion/antimycin A (50 nM; 30 min) and OMA1 activity measured (ex/em 320/405) using a plate reader. […] Future studies will optimize the mitochondrial targeting sequence so that the highest efficiency of mitochondrial localaization without altering mitochondrial oxidant levels will be achieved, which we predict will yield the highest sensitivity for the live-cell OMA1 activity assay.

[6] = Table 2, slope over 30 min, % comparison to AFRATDHG, 2-3 experiments/substrate
[7] = Table 1, average slope over 30 min compared to AFRATDHG substrate, n = 3

Compound: CCOC(=O)[C@H]1O[C@@H]1C(=O)N[C@@H](CC(C)C)C(=O)NCCC(C)C [E64D]
prevention of OMA1-dependent OPA1 cleavage [1]: do not prevent OMA1-dependent OPA1 cleavage

Compound: c1ccc(CN(CCN(Cc2ccccn2)Cc2ccccn2)Cc2ccccn2)nc1 [TPEN, N,N,N′,N′-Tetrakis (2-pyridylmethyl)ethylenediamine]
effect on reporter fluorescence (FLS) increase [2]: effectively inhibits FLS increase; also recorded: effectively inhibits the reporter molecule activation
effect on OMA1 activity (slope, FLS/min) ([3]; NRK cell lysates with TPEN (200 μM in method) vs untreated lysates): reduced OMA1 activity; also recorded: dramatically decreased fluorescence

Compound: CCCCC[C@H](CC(=O)NO)C(=O)N[C@H](C(=O)N1CCC[C@H]1CO)C(C)C [actinonin]
effect on OMA1 activity (slope, FLS/min) ([3]; NRK cell lysates, 0.5-1 μM, vs untreated lysates): neither the broad-spectrum MMP inhibitor, batimastat (0.5-1 μM), or the meprin A inhibitor, actinonin (0.5-1 μM), altered OMA1 activity
effect on OMA1 activity (slope, FLS/min) ([3]; NRK cell lysates, 0.5-1 μM, vs untreated lysates, listed as Actinonin): Only TPEN reduced OMA1 activity

Compound: CC(C)CC(=O)N[C@H](C(=O)N[C@H](C(=O)N[C@@H](CC(C)C)[C@@H](O)CC(=O)N[C@@H](C)C(=O)N[C@@H](CC(C)C)[C@@H](O)CC(=O)O)C(C)C)C(C)C [pepstatin A] (Isovaleryl-VV[Sta]A[Sta]-OH)
prevention of OMA1-dependent OPA1 cleavage [1]: do not prevent OMA1-dependent OPA1 cleavage

OMA1 Activity [3, 6]: 35%
decrease of OMA1 activity compared to the standard substrate sequence [3]: 65%
Compound: AARAAAAA (Mca-AARAAAAA; not fully specified (C-terminus); also: FRET fluorophore and quencher, sites not given here) [FRET substrate with RA motif flanked by alanine residues]

OMA1 Activity [3, 6]: 61%
decrease of OMA1 activity compared to the standard substrate sequence [3]: ~40%
Compound: AFKATDHG (Mca-AFKATDHG; not fully specified (C-terminus); also: FRET fluorophore and quencher) [FRET substrate with Arg changed to Lys]

Vmax for cleavage of the OPA1 FRET substrate [4]: 34.6 FLS/min
Km ([4]; read-out: Km for cleavage of the OPA1 FRET substrate): 7.1 µM
OMA1 Activity [3, 7]: 100%
OMA1 Activity [3, 6]: 100%
Compound: AFRATDHG (Mca-AFRATDHG-{DNP}) [MCA-AFRATDHG-DNP, eight amino acid OPA1 S1-site peptide with MCA fluorophore on the N-terminus and DNP quencher on the C-terminus]

fluorescence of FRET peptide without R-A sequence ([3]; FRET peptide downstream of cleavage site): abolished fluorescence
OMA1 Activity [3, 7]: 2.71%
OMA1 Activity [3, 6]: 2.71%
Compound: ATDHGSES (Mca-ATDHGSES; not fully specified (C-terminus); also: FRET fluorophore and quencher) [eight amino acid FRET peptide from OPA1 downstream of the cleavage site, no RA motif]

Compound: antimycin A
OMA1 activity (fluorescence) in live cells [5]: increased OMA1 activity
OMA1 activity (fluorescence) in live cells ([5]; listed as AMA): induces OMA1 activity

Compound: pefabloc/TPCK
prevention of OMA1-dependent OPA1 cleavage [1]: do not prevent OMA1-dependent OPA1 cleavage
